Test: yeast display, Sf9 membrane polyspecificity reagent, FACS + sequencing; frameworks hold sequencing errors
Method in brief: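 In a synthetic yeast display library (Saccharomyces cerevisiae BJ5465), nanobody expression was induced with galactose for 36–48 hours. FACS gates were set low and high (top ~1%) using anti-HA fluorescence for expression and streptavidin fluorescence for binding of the Sf9 membrane reagent. Each polyreactivity label is drawn from the gate of origin.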

Sequence | polyreactivity (PSR sort gate)
QVQLVESGGGLFQAGVSLRISCAASGFIFDRNAMGWYRQAPGKERELVAVINSGGSTYYADSVKGRFTISRDNAKNTVYLQMNCLKPEDTAVYYCAAVRSRYGREYYYWGQGTQVTVSS | high polyreactivity
QVQLVESGGGLVQAGGSLRLSCAASGRTFYIYAMGWYRQAPGKERELVAGITYSGGRTYYADSVKGRFTISRDNAKNTVYLQMNSLKPEDTAVYYCAARPYLTTEGPYNYWGQGTQVTVSS | low polyreactivity
QVQLVESGGGLVQAGGSLRLSCAASGSIFPQYAMGWYRQAPGKERELVAAITWSGSRTRYADSVKGRFTISRDNAKNTVYLQMNSLKPEDTAVYYCNAVNYRSSRDSGYWGQGTQVTVSS | high polyreactivity
QVQLVESGGGLVQAGGSLRLSCAASGSIFGKNAMGWYRQAPGKERELVAAISATGSRTYYADSVKGRFTISRDNAKNTVYLQMISLKPEETAVYSCTKLVRGVRPEEYDYGGQGTQVTVSS | high polyreactivity
QVQLLESGGGLVQAGGRLRLSCAASGSIFLWNAMGWYRQAPGKERELVAAITNIGGRTYYADSVKGRFTISRDNAKNTVYLQMNSLKPEDTAVYYCNVVVKGAWDYYPYDYWGQGTQVTVSS | high polyreactivity
QVQLVESGGGLVQAGGSLRLSCAASGSIFGVYAMGWYRQAPGKERELVAVITYRDGSTYYADSVKGRFTISRVNAKNTVYLQMNSLKPEDSAVYYCAADSYLGWHSDYGVEYYYWGQGTQVTVSS | low polyreactivity
QVQLVESGGGLVQAGGSLRLSCAASVYTFKSYAMGWYRQAPGKERELVASISNDGSTNYADSVKGRFTISRDNAKNTVYLQMNSLKPEDTAVYYCNADFYDAPSQWARTGFDYWGQGTQVTVSS | low polyreactivity
QVQLVESGGGLVQAGGSLRLSCAASGITLLYYAMGWYRQAPGKERELVAVIDWSGGDTYYADSVKGRFTISRDNAKNTVYLQMNSLKPEDTAVYYCARGSRLVYRRSGFDYWGQGTQVTVSS | low polyreactivity
QVQHVESGGGLVQAGGSLRLSCAASGRTSNIYAMGWYRQAPGKERELVAAIRTGGSTNYADSVKGRFTISRDNAKNTVYLQMNSLKPEDTAVYYCAATSRRSRPAEEYWGQGTQVTVSS | high polyreactivity
QVQLVESGGGLVQAGGSLRLSCAASGFIFYSYDMGWYRQAPGKERELVAAIDSRGVNTYYADSVKGRFTISRDNAKNTVYLQMNILKPEDTAVYYCNVDAITWWDWEDFDYWGQGTQVTVSS | low polyreactivity
QVQLVESGGGLVQAGGSLRLSCAASGSTFIKNAMGWYRQAPGKERELVAAISSSASSTYYADSVKGRFTISRDNAKNTVYLQMNSLKPEDTAVYYCAARASRKYNYWGQGTQVTVSS | high polyreactivity
QVQLVESGGGLVQAGGSLRLSCAASGSTFDVYTMGWYRQAPGKERELVATISGDDGSTYYADSVKGRFTISRDNAKNTVYLQMNSLKPEDTAVYYCAADYGGFPNYYSTGDYWGQGTQVTVSS | low polyreactivity
QVQLVESGGGLVQAGGSLRLSCAASGFIFYLNAMGWSRKAPGKERELVAAISSSGGRTYYADSVKGRFTISRDNAKNTVYFQMNSLKAEDTAVYYCNAVTLYRSRTDGYWGQGTQVTVSS | high polyreactivity
QLQLVESGGGLVQAGGSLRLSCAASGRTFVRYAMGWYRQAPGKERELVAGISRSTGGTYYADSVKGRFTISRDNAKNTVYLQMNSLKPEDTAVYYCAAVYHKNGSGDYSWGQGTQVTVSS | high polyreactivity
QVQLVESGGGLVQAGGSLRLSCASSGLTFWRYVMGWYRQAPGKESELVATISIGGSTNYADSVKGRFTISRDNAKNTVYLQMNSLKPEDTAVYYCAAKFRGDVFPYYYWGQGTQVTVSS | high polyreactivity
QVQLVESGGGLVQAGGSLRLSCAASGFIFGYYAMGWYRQAPGKERELVAAISSGGTTTYYADSVKGRFTISRDNAKNTVYLQMNSLKPEDTAVYYCAKVSQRRVDNSDYDYWGQGTQVTVSS | high polyreactivity
QVQLVESGGGLVQAGGSLRLSCAASGFTFRYYAMGWYRQAPGKERELVAAINYSGGSTFYADSVKGRFTISRDNAKNTVYLQMNSLKPEDTAVYYCAATRLTPYIYGGKYNYWGQGTQVTVSS | high polyreactivity
QVQLVESGGGLVQARGSLRLSCAASGRILYSYAMGWYRQAPGKERELVASISLSGGRTYADSVKGRFTISRDNAKNTVYLQMNSLKPEDTAVYYCNDRIRTSRYLWPFDYWGQGTQVTVSS | high polyreactivity
QVQLVESGGGLVQAGGSLRLSCAASGRILYGYAMGWYRQAPGKERELVASITWSGGSTYADSVKGRFTISRDNAKNTVYLQMNSLKPEDTAVYYCATRRGPKWQWLTYGYWGQGTKVTVSS | low polyreactivity
QVQLVESGGGLVQAGGSLRLSCSASGSTFYRKTMGWYRQAPGKERELVAAISSGGGTKYADSVKGRFTISRDNAKNTVYLQMNSLKPEDTAVYYCAAVYYTLGYAYYPYIYYYWGQGTQVTVSS | high polyreactivity
QVQLVESGGGLVQAGGSLRLSCAASGRIFGVNAMGWYTQAPGKERELVAAIRYTGGSTYYADSVKGRFTISRDNAKNTVYLQMNSLKPEDTAVYYCAKARYTYSWSFGYWGQGTQVTVSS | low polyreactivity
QVQLVESGGGLVQAGGSLRISCAPSGIIFTDYAMGWYRQAPGKERELVAAISSGGGSTYYADSVKGRFTISRDNAKNTVYLQMNSLKPEDTAVYYCAAEGYLISGAGDYLYDYYWGQGTQVTVSS | high polyreactivity

Sequence | polyreactivity (PSR sort gate)
QVQLVESGGGLVQAGGSLRLSCAASGFTFEENAMGWYRQAPGKERELVAAINWSGGNTYYADSVKGRFTISRDNAKNTVYLQMNSLKPEDTAVYYCAAEYRSWSWRMDYWGQGTQVTVSS | high polyreactivity
QVQLVESGGGLVQAGGSLRLSCAASGSIFNIYAMGWYRQAPGKESELVAAISYSGGSTYYADSVKGRFTISRDNAKNTVYLQMNSLKPEDTAVYYCNADGYYFLISNANPLGYWGQGTQVTVSS | low polyreactivity
QVQLVESGGGLVQAGGRLRLSCAASGRTFYTYAMGWYRQAPGKERELVAAITSGGSTYSADSVKGRFTISRDNAKNTVYLQMNSLKPEDTAVYYCAAEFYYWRGFDYWGQGTQVTVSS | low polyreactivity
QVQLVESGGGLVQAGGSLRLSCAASGSTFYSNAMGWYRQAPGKERELVASISWSSGSTYYADSVKGRFTISRDNAKNTVYLQMNSLKPEDTAVYYCATDAGGPYRFGYWGQGTQVTVSS | low polyreactivity
QVQIVESGGGLVQAGGSLRLSCAASGSIFGYYVMGWNRQAPGKERELVAAISSGGGNTYYADSVKGRFTISRDNAKNTVYLQMISLKPEDTAVYYCAALRSWRKTGGAQRYWYDYWGHGTQVTVSS | high polyreactivity
QVQLVESVGGLVQAGGSLRLSCAASGSIFVRNAMGWYRQAPGKERELVAGISRSGGSTNYADSVKGRFTISRDNAKNTVYLQMNSLKPEDTAVYYCAASRLVWVGRPWYQVRGDYWGQGTHVTVSS | high polyreactivity
QVQLVESGGGLVQAGGSLRLSCAASGSTFRGYDMGWYRQAPGKERELVAAITTSGGTTYYADSVKGRFTISRDNAKNTVYLQMNSLKPEDTAVYYCAARYPRAGVPRRPTAYVRYGYWGQGTQVTVSS | high polyreactivity
QVQLVESGGGLVQAGGSLRLSCAASGGTFLINAMGWYRQAPGKERELVATITSGGTTYYADSVKGRFTISRDNAKNTVYLQMNSLKPEDTAVYYCATRGKGRYGYDSWGQGTQVTVSS | low polyreactivity
QVQLVESGGGLVQAGGSLRLSCAASGRTFVPYAMGWYRQAPGKEREMVAAISQSGGRTYYTDSVKGRFTISRDNAKNTVYLLMNSLKPEDTAVYYCAARGPYRPPHGDAYYTYVYWGQGTQVTVSS | high polyreactivity
QVQLVESGGGLVQAGGSLRLSCAASGSIFVLYAMGWYRQAPGKERELVATITWSGDSTYYADSVKGRFTISRDNAKNTVYLQMNSLKPEDTAVYYCNKRIWDQYDWGQGTQVTVSS | low polyreactivity
QVQLVESGGGLVQAGGSLRLSCAASGFTFRAYAMGSYRQAPGKERELVAAISTGGGSTYYADSVKGRFTISRDNAKNTVYLQMNSLKPEDTAVYYCNALPQRRYYYWGQGTQVTVSS | high polyreactivity
HVQLVESGGGLVQAGGSLRLSCAASGSIFSGNAMGWYRQAPGKERELVAAISYSDGSTYYADSVKGRFTISRDNAKNTVYLQMNSLKPEDTAVYYCAADGYPYTYDYWGQGTQVTVST | low polyreactivity
QVQLVESGGGLVQAGGSLRLSCAASGNIFVAYAMGWYRQAPGKERELVAAITSGGRTYADSVKGRFTISSDNAKNTVYLQMNSLKPEDTAVYYCNADPYYVYLGYYDRYYSGYGYWGLGTQVTVSS | low polyreactivity
QDQLVESGGGLVQAGGSLRLSCAASGFTFHNNVMGWYRQAPGKERELVATISKSGGSTYYADSVKGRITISRDNAKNTVYLQMNSLKPEDTAVYYCARRYRDYGRYGYWGQGTQVTVSS | high polyreactivity
QVQLVESGGGLVQAGGSLRLSCAASGSIYGFYAKGWYRQAPAKESELVAAIDSGDSSNYADSVKGRFTISRDNAKNTVYLQMKSLIPEDTAVYYWNAEAWWYFCFDYWGQGTQVTVSS | low polyreactivity
QVQLVESGGGLVQAGGSLRLSCAASGFTFVGYAIGWYRQAPGKERDMVAAITRRGGSTYYADSVKGRFTISRDNAKNTVYLQMNSLKPEDTAVYYCNKSSYRISVPRYDYWGQGTQVTVSS | high polyreactivity
QVQLVESGGGLVQAGGSLRLSCAASGSIFGLNAMGWYRQAPGKEREFVAAIDKNGAGTYYADSVKGRFTISRDNAKNTVYLQMNSLKPEDTAVYYCAAEYRSYGWYGYVVEYDYWGLGTQVTVSS | high polyreactivity
QVQLVESGGGLVQAGGSLRLSCAASGRTFKRYAMGWYRQAPGKERELVAAITWSGGNTYYADSVKGRFTISRDNAKNTVYLQINSLKPEDTAVYYCAAKGAGRRYDSWGQGTQVTVSS | high polyreactivity
QVQLVESVGGLVQAGGSLRLSCAASGSTFAFNAMGWYRQAPGKEREFVAAITWRGGSTYYADSVKGRFTISRDNAKNTVYLQMNSLKPEDTAVYYCARRPGYALTWRVSGRYDYWGQGTQVTVSS | high polyreactivity
QVQLVESGGGLVQAGGSLRLSCAASGFTFSYYAMGWYRQAPGKERELVAAISGSGTRTYYADSVKGRFTISRDNAKNTVYLQMNSLKPEDTAVYYCAADLYVTYDYWGQGTQVTVSS | high polyreactivity
QDQLVESGGCLVQAGGSLRLSCAASGSIFKRNAMGWYRQAPGKERELVASISWSGTRTYYADSVKGRFTISRDNAKNTVYLQMNSLKPEDTAVYYCARRIYGGHPSQSTQGDFYYWGHGTQVTVSS | high polyreactivity
